Consider two molecules from patent publication US20070287629A1 (MAX PLANCK GESELLSCHAFT ZUR FOERDERUNG DER WISSENSCHAFTEN E …, published 2007).

The target of data set [1] is Tobacco 14-3-3c (Gene bank AAC49892, amino acids 1-260 with an N-terminal His-tag) (Nicotiana tabacum (tobacco)) (UniProt P93343). Nature of the data set: isothermal titration calorimetry, peptide titrated into 14-3-3c alone, 35 °C. For orientation: ITC needs no label: the signal is the heat of the interaction.
Data set [2] concerns the target 14-3-3-FC complex (tobacco 14-3-3c saturated with fusicoccin) (Nicotiana tabacum (tobacco)) (UniProt P93343). Nature of the data set: ITC; peptide into the 14-3-3-FC complex.
In data set [3] the target is Tobacco 14-3-3c (Gene bank AAC49892, amino acids 1-260 with an N-terminal His-tag) (Nicotiana tabacum (tobacco)) (UniProt P93343). Nature of the data set: ITC; phosphopeptide (0.5 mM) titrated into 14-3-3c (0.05 mM), 25 mM HEPES pH 6.5, 35 °C, single-site fit; peptide to unliganded 14-3-3c, no fusicoccin; ITC, pH 6.5, 35 C.
Data set [4] concerns the target 14-3-3-FC complex (tobacco 14-3-3c saturated with fusicoccin) (Nicotiana tabacum (tobacco)) (UniProt P93343).
Data set [5] deals with Tobacco 14-3-3c (Gene bank AAC49892, amino acids 1-260 with an N-terminal His-tag) (Nicotiana tabacum (tobacco)) (UniProt P93343). The experiment in a line: ITC; peptide into unliganded 14-3-3c.
In data set [6] the target is 14-3-3-FC complex (tobacco 14-3-3c saturated with fusicoccin) (Nicotiana tabacum (tobacco)) (UniProt P93343). Nature of the data set: isothermal titration calorimetry, […].
Data set [7] deals with the molecule itself. Nature of the data set: X-ray crystal structure (homodimer).
Experimental: Tobacco 14-3-3c (Gene bank AAC49892, amino acids 1-260 with an N-terminal His-tag) was expressed recombinantly in E.coli and purified via standard procedures. Fusicoccin was purchased from Sigma. Phosphopeptides were synthesized by Biosyntan (Berlin). […] They were soaked with ligands for 4 hours (fusicoccin) or 20 minutes (peptide) in precipitant solution supplemented to 30% PEG 400 and cryoprotectant (precipitant solution supplemented to 35% PEG 400, 8% Isopropanol) prior to freezing in liquid N₂.

By Kd is commonly meant the constant that tells how readily two partners part at equilibrium.

With “phosphopeptide Gln-Ser-Tyr-pThr-Val (QSYpTV), C-terminal end of PMA2, a H+-ATPase isoform from N. plumbaginifolia”, the results for the ΔG in data set [1] and in data set [6] were -8.3 kcal/mol and -11.4 kcal/mol, respectively. The -TΔS was 0.4 kcal/mol in data set [2] and 1.7 kcal/mol in data set [5]. Moreover, the ΔH is -11.8 kcal/mol in data set [2] and -10 kcal/mol in data set [5]. The Kd in data set [3] was 2500 nM; in data set [6], 27 nM. This molecule gave a fold increase of binding affinity by fusicoccin in data set [4] of 93 fold.

B1: Tobacco 14-3-3c (Gene bank AAC49892, amino acids 1-260 with an N-terminal His-tag) (other)
chain: MAVAPTAREENVYMAKLAEQAERYEEMVEFMEKVSNSLGSEELTVEERNLLSVAYKNVIGARRASWRIISSIEQKEESRGNEEHVNSIREYRSKIENELSKICDGILKLLDAKLIPSAASGDSKVFYLKMKGDYHRYLAEFKTGAERKEAAESTLTAYKAAQDIATTELAPTHPIRLGLALNFSVFYYEILNSPDRACNLAKQAFDEAIAELDTLGEESYKDSTLIMQLLRDNLTLWTSDMQDDGADEIKEDPKPDEAKN
notes: Expressed in E. coli; one monomer in the asymmetric unit; also called plant 14-3-3c; Nicotiana tabacum 14-3-3 isoform c; not shown: N-terminal His-tag
Consider B1, for which the binding result in data set [7] was “binds”.
